Data as given in patent publication US20200368341A1.

Biological target: P. falciparum circumsporozoite protein (CSP) (Plasmodium falciparum) (UniProt P19597)
Experiment: cell-based or functional assay

UniProt P19597, sequence (P19597 19-374): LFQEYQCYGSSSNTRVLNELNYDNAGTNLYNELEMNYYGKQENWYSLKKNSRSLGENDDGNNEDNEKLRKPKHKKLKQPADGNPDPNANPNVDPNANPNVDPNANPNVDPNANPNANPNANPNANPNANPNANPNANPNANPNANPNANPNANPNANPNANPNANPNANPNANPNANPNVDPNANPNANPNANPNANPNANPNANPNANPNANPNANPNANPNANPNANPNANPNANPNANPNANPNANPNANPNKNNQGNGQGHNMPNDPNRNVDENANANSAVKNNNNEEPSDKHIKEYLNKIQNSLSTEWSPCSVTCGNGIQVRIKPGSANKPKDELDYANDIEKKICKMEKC

## monoclonal antibody 2A10
  in vitro liver invasion assay: parasite burden in liver cells against the pre-immune control serum: > 2 log
